Paper doi:10.1101/2022.03.21.484600 (bioRxiv, 2022)

Legend:
[1] = biological target: the molecule itself; assay: circular dichroism of fibrils collected by centrifugation
[2] = biological target: the molecule itself; assay: pelleting by centrifugation + negative staining TEM
[3] = biological target: the molecule itself; assay: fibril formation seen by negative staining TEM
pelleting assay = biological target: the molecule itself; assay: pelleting assay
SEC = biological target: the molecule itself; assay: SEC

Protein: TSTTATVAASAVAAVFA [Cdc19 amyloid core peptide, E380A E392A]
- binding result [1]: binds

Protein: AREAEAAIYHLQLFEELRRLA [PKM2 amyloid core centre peptide, wild type (amino acids 382-402)]
- binding result [2]: binds

Protein: TSTTQTVAASAVAAVFQ [Cdc19 amyloid core peptide, E380Q E392Q]
- binding result [3]: binds

B1: Purified full-length PKM2 H391R (enzyme)
chain: not shown
- binding result (pelleting assay): binds

Protein: AREAEAAIYRLQLFEELRRLA [PKM2 amyloid core centre peptide H391R (amino acids 382-402)]
- binding result [2]: binds

B2: Purified full-length Cdc19, wild type (enzyme)
chain: MSRLERLTSLNVVAGSDLRRTSIIGTIGPKTNNPETLVALRKAGLNIVRMNFSHGSYEYHKSVIDNARKSEELYPGRPLAIALDTKGPEIRTGTTTNDVDYPIPPNHEMIFTTDDKYAKACDDKIMYVDYKNITKVISAGRIIYVDDGVLSFQVLEVVDDKTLKVKALNAGKICSHKGVNLPGTDVDLPALSEKDKEDLRFGVKNGVHMVFASFIRTANDVLTIREVLGEQGKDVKIIVKIENQQGVNNFDEILKVTDGVMVARGDLGIEIPAPEVLAVQKKLIAKSNLAGKPVICATQMLESMTYNPRPTRAEVSDVGNAILDGADCVMLSGETAKGNYPINAVTTMAETAVIAEQAIAYLPNYDDMRNCTPKPTSTTETVAASAVAAVFEQKAKAIIVLSTSGTTPRLVSKYRPNCPIILVTRCPRAARFSHLYRGVFPFVFEKEPVSDWTDDVEARINFGIEKAKEFGILKKGDTYVSIQGFKAGAGHSNTLQVSTV
- stoichiometry N (SEC): 4

Protein: TSTTETVAASAVAAVFE [Cdc19 amyloid core peptide, wild type (amino acids 376-392)]
- binding result [1]: binds
